According to US20170015742A1 (published 2017):

How the values were obtained:
Human PDGF-BB [1] = target: T1, Human PDGF-BB (human, UniProt P01127 82-190); assay: SPR (Biacore), antibody captured via anti-human Fc, antigen in solution
T1 construct: Recombinant human PDGF-BB, a homodimer of two B chains; also called hPDGF-BB; huPDGF-BB
In short: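 Antibodies or DVD-Ig molecules (1 μg/ml) were captured on an anti-human Fc CM5 surface, with antigen injected in solution and responses referenced to the capture-only surface. Rate constants came from a global 1:1 Langmuir fit, and KD = koff/kon.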

Human PDGF-BB [2] = target: T1, Human PDGF-BB; assay: SPR (Biacore), antibody captured via anti-human Fc, antigen in solution; footnote *: heterogeneous off-rate
Description: For example, approximately 9000 RU of goat anti-human Fc specific polyclonal antibody (Thermo Fisher Scientific Inc., Rockford, Ill.) diluted in 10 mM sodium acetate (pH 4.5) is directly immobilized across a CM5 research grade biosensor chip using a standard amine coupling kit according to manufacturer's instructions and procedures at 25 μg/ml. Unreacted moieties on the biosensor surface were blocked with ethanolamine. For kinetic analysis, rate equations derived from the 1:1 Langmuir binding model were fitted simultaneously to multiple antigen injections (using global fit analysis) with the use of Scrubber 2 (BioLogic Software), Biacore Biaevaluation 4.0.1 software or Biacore T100 Evaluation software. Purified antibodies or DVD-Ig molecules were diluted in running buffer for capture across goat anti-human Fc reaction surfaces. Antibodies or DVD-Ig molecules to be captured as a ligand (1 μg/ml) were injected over reaction matrices at a flow rate of 10 μl/minute. During the assay, all measurements were referenced against the capture surface alone (i.e., with no captured antibody or DVD-Ig molecule). […] The equilibrium dissociation constant KD (M) of the reaction between antibodies and the target antigen was then calculated from the kinetic rate constants by the following formula: KD=Koff/Kₒₙ. Binding was recorded as a function of time and kinetic rate constants were calculated.

T1 sequence (P01127 82-190 limits assumed): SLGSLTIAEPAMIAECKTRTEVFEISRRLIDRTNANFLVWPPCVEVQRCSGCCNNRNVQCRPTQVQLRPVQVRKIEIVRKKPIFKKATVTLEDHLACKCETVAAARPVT

Binder	kon (Human PDGF-BB [1])	Kd (Human PDGF-BB [2])
hBDI-9E8.8 (antibody, V domains shown, Humanized IgG) VH: EVTLRESGPALVKPTQTLTLTCTFSGFSLSTYGMGVGWIRQPPGKGLEWLANIWWDDDKYYNPSLKNRLTISKDTSKNQAVLTITNMDPVDTATYYCARIESIGTTYSFDYWGQGTMVTVSS VL: EFVLTQSPGTLSLSPGERATLSCERSSGDIGDSYVSWYQQKPGQAPRLVIYADDQRPSGIPDRFSGSGSGTDFTLTISRLEPEDFAVYYCQSYDINIDIVFGGGTKVEIK	≥ 1e+07 M⁻¹ s⁻¹	≤ 0.017 nM
hBDI-5H1.7 (antibody, V domains shown, Humanized IgG) VH: EVTLKESGPALVKPTQTLTLTCTFSGFSLSTFGMGVGWIRQPPGKALEWLANIWWDDDKYYNPSLKNRLTISKDTSKNQAVLTITNMDPVDTATYYCARISTGISSYYVMDAWGQGTTVTVSS VL: EIVLTQSPGTLSLSPGERATLSCERSSGDIGDTYVSWYQQKPGQAPRLLIYGNDQRPSGIPDRFSGSGSGTDFTLTISRLEPEDFAVYYCQSYDSDIDIVFGGGTKVEIK	≥ 1e+07 M⁻¹ s⁻¹	≤ 2.9 nM
hBDI-5H1.8 (antibody, V domains shown, Humanized IgG) VH: EVTLKESGPALVKPTQTLTLTCTFSGFSLSTFGMGVGWIRQPPGKALEWLANIWWDDDKYYNPSLKNRLTISKDTSKNQAVLTITNMDPVDTATYYCARISTGISSYYVMDAWGQGTTVTVSS VL: EFVLTQSPGTLSLSPGERATLSCERSSGDIGDTYVSWYQQKPGQAPRLVIYGNDQRPSGIPDRFSGSGSGTDFTLTISRLEPEDFAVYYCQSYDSDIDIVFGGGTKVEIK	≥ 1e+07 M⁻¹ s⁻¹	≤ 72 nM

The remaining lines, values ahead:

kon (Human PDGF-BB [1])	Kd (Human PDGF-BB [2])	Binder
≥ 1e+07 M⁻¹ s⁻¹	≤ 0.1 nM	hBDI-9E8.13 (antibody, V domains shown, Humanized IgG) VH: EVTLRESGPALVKPTQTLTLTCTFSGFSLSTYGMGVGWIRQPPGKGLEWLANIWWDDDKYYNPSLKNRLTISKDTSKNQAVLTITNMDPVDTATYYCARIESIGTTYSFDYWGQGTMVTVSS VL: DFQLTQSPSSLSASVGDRVTITCERSSGDIGDSYVSWYQQKPGKAPKNVIYADDQRPSGVPSRFSGSGSGNSASLTISSLQPEDFATYYCQSYDINIDIVFGQGTKVEIK
≥ 1e+07 M⁻¹ s⁻¹	≤ 0.49 nM	hBDI-5H1.13 (antibody, V domains shown, Humanized IgG) VH: EVTLKESGPALVKPTQTLTLTCTFSGFSLSTFGMGVGWIRQPPGKALEWLANIWWDDDKYYNPSLKNRLTISKDTSKNQAVLTITNMDPVDTATYYCARISTGISSYYVMDAWGQGTTVTVSS VL: DFQLTQSPSSLSASVGDRVTITCERSSGDIGDTYVSWYQQKPGKAPKNVIYGNDQRPSGVPSRFSGSGSGNSATLTISSLQPEDFATYFCQSYDSDIDIVFGQGTKVEIK
